Measured values published in article PMC10433997, “Highly Cross-Reactive and Protective Influenza A Virus H3N2 Hemagglutinin- and Neuraminidase-Specific Human Monoclonal Antibodies” (Microbiology Spectrum, 2023).
Substitutions are numbered along the chain they refer to.

Tests used:
[1] = target: recombinant hemagglutinin (HA) of A/Netherlands/219/03 H7N7 (Influenza A virus …, UniProt Q6VMK1, strain); assay: ELISA; conditions: both partners purified
[2] = target: T1, hemagglutinin (HA) of A/Switzerland/9715283/2013 H3N2 (Influenza A virus …, strain); assay: cell-based or functional assay
[3] = target: T2, H3 hemagglutinin protein of A/Brisbane/10/2007 H3N2 (Influenza A virus A/Brisbane/10/2007 …, UniProt A8W8K8, strain); assay: cell-based or functional assay
[4] = target: T3, hemagglutinin (HA) of A/Hong Kong/1/1968 H3N2 (Influenza A virus A/Hong Kong/1/1968 …, UniProt Q91MA7); assay: immunostaining of cells or tissue; conditions: one partner purified
T3 construct: source: MDCK cells infected with the virus (BEI Resources)

[5] = target: T1, hemagglutinin (HA) of …; assay: cell-based or functional assay; remark: listed apart in the source
[6] = target: T2, H3 hemagglutinin protein of …; assay: cell-based or functional assay; remark: listed apart in the source

B1: 1092E4 H3-specific human monoclonal antibody (antibody, V domains shown)
VH: QVQLVQSGAEVKKPGASVKVSCKASGYSFTRYGISWVRQAPGQGLEWMGWISAYTGNTDYAQKFQGRITMTTDTSTSTVYMELRSLRSDDTAVYYCARDHPQGVVILGSYYYGMDVWGQGNTVTVSS
VL: EIVLTQSPGTLSLSPGERATLSCRASQSVTSRYLAWYQQKLGQAPRLLIYGASSRATGIPDRFSGSGSGTDFTLTISSLEPEDFAVYYCQQSGSPRTFGQGTKVEIK
notes: also called H3 hMAb 1092E4; source: HEK293T, transfected; IgG captured and eluted from Magne protein A beads
binding result [1]: binds | microneutralization IC50, virus A/Switzerland/9715293/2013 H3N2 [2]: 6.25 µg/mL | microneutralization IC50, virus A/Brisbane/10/2007 H3N2 [3]: 0.1 µg/mL | binding result [4]: binds | hemagglutination inhibition (HAI) IC50, virus A/Switzerland/9715293/2013 H3N2 [5]: 50 µg/mL | hemagglutination inhibition (HAI) IC50, virus A/Brisbane/10/2007 H3N2 [6]: 3.13 µg/mL

B2: 1092C4 H3-specific human monoclonal antibody (antibody, V domains shown)
VH: B1 VH with Q1E, V79A, H100L
VL: B1 VL with F84L
notes: also called H3 hMAb 1092C4; source: HEK293T, transfected; IgG captured and eluted from Magne protein A beads
binding result [1]: binds | microneutralization IC50, virus A/Switzerland/9715293/2013 H3N2 [2]: 0.78 µg/mL | microneutralization IC50, virus A/Brisbane/10/2007 H3N2 [3]: 0.1 µg/mL | binding result [4]: binds | hemagglutination inhibition (HAI) IC50, virus A/Switzerland/9715293/2013 H3N2 [5]: 50 µg/mL | hemagglutination inhibition (HAI) IC50, virus A/Brisbane/10/2007 H3N2 [6]: < 0.05 µg/mL
